The results in this text go back to publication PMC5267338.

For test [1], the target named is human mitochondrial ferredoxin 1 (FDX1), holo form with [2Fe-2S] cluster (H. sapiens). The test is described as follows: ITC.
For test [2], the target named is human mitochondrial ferredoxin 2 (FDX2), holo form with [2Fe-2S] cluster (H. sapiens) (UniProt Q6P4F2). The test is described as follows: ITC.
human mitochondrial ferredoxin 2 (FDX2), holo form with [2Fe-2S] cluster (H. sapiens), sequence (Q6P4F2 53-183): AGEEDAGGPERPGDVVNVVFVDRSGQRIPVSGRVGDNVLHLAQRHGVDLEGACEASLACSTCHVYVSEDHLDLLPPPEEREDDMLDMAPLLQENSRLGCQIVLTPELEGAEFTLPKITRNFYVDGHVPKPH

[Acp]2:[ISD11]2:[NFS1]2 complex (cysteine desulfurase complex), sequence (Q9Y697 53-457): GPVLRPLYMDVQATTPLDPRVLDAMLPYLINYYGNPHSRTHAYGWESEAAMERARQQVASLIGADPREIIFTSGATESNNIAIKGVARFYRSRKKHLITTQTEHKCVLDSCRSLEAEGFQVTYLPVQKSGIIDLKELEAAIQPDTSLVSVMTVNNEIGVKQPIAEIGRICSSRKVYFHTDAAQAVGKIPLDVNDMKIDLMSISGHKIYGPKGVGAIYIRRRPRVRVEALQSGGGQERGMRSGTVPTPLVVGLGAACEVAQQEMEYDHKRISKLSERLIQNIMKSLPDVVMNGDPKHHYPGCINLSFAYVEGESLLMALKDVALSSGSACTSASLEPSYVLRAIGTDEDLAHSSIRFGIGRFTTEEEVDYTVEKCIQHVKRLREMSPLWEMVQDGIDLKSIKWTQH
[Acp]2:[ISD11]2:[NFS1]2 complex (cysteine desulfurase complex), sequence (Q9HD34 whole entry): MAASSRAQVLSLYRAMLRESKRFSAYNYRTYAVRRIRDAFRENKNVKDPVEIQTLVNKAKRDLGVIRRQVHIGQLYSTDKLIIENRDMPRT
[Acp]2:[ISD11]2:[NFS1]2 complex (cysteine desulfurase complex), sequence (P0A6A8 2-78): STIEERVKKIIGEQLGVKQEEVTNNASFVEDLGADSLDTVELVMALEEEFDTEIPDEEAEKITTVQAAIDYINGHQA

For the substance “[Acp]2:[ISD11]2:[NFS1]2 complex (cysteine desulfurase complex) (from UniProt Q9Y697 53-457; Q9HD34 1-91; P0A6A8 2-78)”, the values for the Kd in test [1] and in test [2] were 41.7 µM and 14.9 µM, respectively.
